Data on one molecule can be found in PMC10191858, “DNA segment capture by Smc5/6 holocomplexes” (Nature Structural & Molecular Biology, 2023).

The assay has as its target T1, Smc5(G1054C), Smc5 with the engineered cysteine of the Smc5–Nse4 interface (S. cerevisiae, UniProt Q08204 1-1093, G1054C).
T1 construct: Smc5, S. cerevisiae, subunit of the Smc5/6 hexamer; engineered cysteine G1054C for BMOE cross-linking to Nse4; Stood in the assay as a subunit of the purified hexamer (Smc5, Smc6, Nse1-4)
T1 sequence (looked up): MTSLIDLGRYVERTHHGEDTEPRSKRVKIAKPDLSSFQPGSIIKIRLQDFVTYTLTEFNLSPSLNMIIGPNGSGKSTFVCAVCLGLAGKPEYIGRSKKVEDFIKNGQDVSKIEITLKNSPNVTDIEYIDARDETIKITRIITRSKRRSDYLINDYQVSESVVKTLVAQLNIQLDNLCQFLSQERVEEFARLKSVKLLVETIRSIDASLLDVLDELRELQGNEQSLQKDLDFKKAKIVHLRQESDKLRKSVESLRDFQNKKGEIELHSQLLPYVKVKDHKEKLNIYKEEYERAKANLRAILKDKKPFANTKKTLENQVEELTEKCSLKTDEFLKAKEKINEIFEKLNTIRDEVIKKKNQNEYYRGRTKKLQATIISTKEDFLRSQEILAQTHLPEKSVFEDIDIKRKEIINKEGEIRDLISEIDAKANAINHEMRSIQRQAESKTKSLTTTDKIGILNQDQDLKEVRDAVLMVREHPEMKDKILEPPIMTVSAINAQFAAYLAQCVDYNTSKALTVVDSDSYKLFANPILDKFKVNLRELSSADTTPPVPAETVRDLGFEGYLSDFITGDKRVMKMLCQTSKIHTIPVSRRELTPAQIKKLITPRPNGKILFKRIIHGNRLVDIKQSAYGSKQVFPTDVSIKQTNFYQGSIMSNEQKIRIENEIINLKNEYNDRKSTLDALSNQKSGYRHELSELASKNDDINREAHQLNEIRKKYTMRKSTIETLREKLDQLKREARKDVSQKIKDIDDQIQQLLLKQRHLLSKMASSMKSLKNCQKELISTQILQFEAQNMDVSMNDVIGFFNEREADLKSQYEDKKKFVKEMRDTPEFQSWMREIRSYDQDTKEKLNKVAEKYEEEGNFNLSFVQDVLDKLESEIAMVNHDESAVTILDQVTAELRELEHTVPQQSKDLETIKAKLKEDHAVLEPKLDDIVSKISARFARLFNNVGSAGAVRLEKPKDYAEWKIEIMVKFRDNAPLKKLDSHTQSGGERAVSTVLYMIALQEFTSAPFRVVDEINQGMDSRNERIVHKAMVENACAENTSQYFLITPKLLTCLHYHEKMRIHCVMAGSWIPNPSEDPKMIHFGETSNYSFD
The assay can be described thus: cross-linking; site-specific BMOE cross-linking (1 mM, 45 s, stopped with 10 mM DTT) of engineered cysteine pairs in purified Smc5/6 hexamers at 0.5 uM; 10 mM Hepes-KOH pH 7.5, 150 mM KOAc, 2 mM MgCl2, 20% glycerol, RT; with or without Nse5/6 dimer (0.625 uM), 2 mM ATP, 5 nM plasmid DNA (25 kbp); SDS-PAGE and Coomassie staining, bands quantified. The conditions noted are these: both partners purified.

B1: Nse5/6 dimer (loader) (complex, S. cerevisiae)
chain 1: MDGALINSVLYVSPRNGAHYFVELTEKHLLAFEMLNSMCLLENYDHVLLFLECQFGKSHNLAVIPFDIILVLFTLSTLSEYYKEPILRANDPYNTSRETLSRRALKLLQKYLAILKEFDSEQYNLYDLELLRCQFFLAIDTLTPKKQKWGFDRFRRTKSESGVTYRQNASVDPELDQAKTFKNPYRSYISCLEQRNTILGNRLLNLKLNEPGEFINMILWTLSNSLQESTPLFLSSHEIWMPLLEILIDLFSCRQDYFIQHEVAQNVSKSLFVQRLSESPLAVFFESLNTRNFANRFSEYVFLNCDYKLPSDNYATPVHPVYNGENTIVDTYIPTIKCSPLYKSQKSLALRRKLIGSCFKLLLRVPDGHRLITPRIVADDVIQGISRTLASFNDILQFKKFFMTENLSQESYFIPLLAEGTLSEILKDTQECVVILTLVENLSDGVSFCNEVIGLVKSKCFAFTEQCSQASYEEAVLNIEKCDVCLLVLLRYLLHLIGTEAILDAKEQLEMLHAIEKNDSGRRQWAKALNLGNDPPLLYPIVSQMFGVHDKSVIIE
chain 2: MGSVNSSPNEEFETVPDSQISGFDSPLIPTSVGSYFRDDDDDEKVHPNFISDPENDSLNSDEEFSSLENSDLNLSGAKAESGDDFDPILKRTIISKRKAPSNNEDEEIVKTPRKLVNYVPLKIFNLGDSFDDTITTTVAKLQDLKKEILDSPRSNKSIVITSNTVAKSELQKSIKFSGSIPEIYLDVVTKETISDKYKDWHFISKNCHYEQLMDLEMKDTAYSFLFGSSRSQGKVPEFVHLKCPSITNLLVLFGVNQEKCNSLKINYEKKENSRYDNLCTIFPVNKMLKFLMYFYSDDDNDDVREFFLKAFICLILDRKVFNAMESDHRLCFKVLELFNEAHFINSYFEIVDKNDFFLHYRLLQIFPHLQSALLRRRFSEKQGRTETIQQNIIKEFNEFFDCKNYKNLLYFILTMYGSKFIPFGPKCQVTEYFKDCILDISNETTNDVEISILKGILNLFSKIR
notes: Nse5, S. cerevisiae; a native cysteine of it cross-links off-target to Smc5(G1054C); Nse6, S. cerevisiae; also called Nse5/6 subcomplex; Nse5/6 complex
For B1, the binding result is “binds”.
